Article PMC7287156
Values joined by “and” are separate entries in the source; they are usually repeats but may differ in a detail not shown here. Equal entries are not always repeated.

Experiments:
[1] = molecular target: Catechol 1,2-dioxygenase from Pseudomonas stutzeri GOM2 (Pseudomonas stutzeri GOM2); test: SEC + other: dynamic light scattering; 50 mM glycine-NaOH pH 8.5 with 700 mM NaCl (seawater salinity); SEC on Superdex 200; DLS at 1 mg/mL, 40 °C
[2] = molecular target: Catechol 1,2-dioxygenase from Pseudomonas stutzeri GOM2 (Pseudomonas stutzeri GOM2); test: native gel or EMSA; 10% acrylamide gel under non-denaturing conditions, no SDS or reducing agents; the dimer and trimer samples from SEC mixed and loaded together
[3] = molecular target: Catechol 1,2-dioxygenase from Pseudomonas stutzeri GOM2 (Pseudomonas stutzeri GOM2); test: SEC; HiLoad 26/60 Superdex 200, 50 mM glycine-NaOH pH 8.5, no NaCl; 500 uL of protein at 20 mg/mL; mass from calibration with standard proteins

Substance: Catechol 1,2-dioxygenase from Pseudomonas stutzeri GOM2 (enzyme)
- stoichiometry N [1]: 2
- stoichiometry N [2]: 2 and 3
- stoichiometry N [3]: 3
